In paper PMC12749748 (2025):

Molecular target: VHL (Homo sapiens, UniProt P40337)
Test: SPR

Chain of VHL (P40337 whole entry): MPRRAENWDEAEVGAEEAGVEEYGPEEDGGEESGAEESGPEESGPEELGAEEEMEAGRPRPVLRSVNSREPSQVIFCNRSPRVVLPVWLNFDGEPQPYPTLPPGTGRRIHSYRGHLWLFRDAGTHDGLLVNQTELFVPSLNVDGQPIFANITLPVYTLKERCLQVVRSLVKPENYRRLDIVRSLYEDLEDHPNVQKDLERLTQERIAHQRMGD

Kd: > 10 µM
B1: IRE1 (protein)
chain: IFGSTSTVTLPETLLFVSTLDGSLHAVSKRTGSIKWTLKEDPVLQVPTHVEEPAFLPDPNDGSLYTLGSKNNEGLTKLPFTIPELVQASPCRSSDGILYMGKKQDIWYVIDLLTGEKQQTLSSAFADSLCPSTSLLYLGRTEYTITMYDTKTRELRWNATYFDYAASLPEDDVDYKMSHFVSNGDGLVVTVDSESGDVLWIQNYASPVVAFYVWQREGLRKVMHINVAVETLRYLTFMSGEVGRITKWKYPFPKETEAKSKLTPTLYVGKYSTSLYASPSMVHEGVAVVPRGSTLPLLEGPQTDGVTIGDKGECVITPSTDVKFDPGLKSKNKLNYLRNYWLLIGHHETPLSASTKMLERFPNNLPKHRENVIPADSEKKSFEEVINLVDQTSENAPTTVSRDVEEKPAHAPARPEAPVDSMLKDMATIILSTFLLIGWVAFIITYPLSMHQQQQLQHQQFQKELEKIQLLQQQQQQLPFHPPGDTAQDGELLDTSGPYSESSGTSSPSTSPRASNHSLCSGSSASKAGSSPSLEQDDGDEETSVVIVGKISFCPKDVLGHGAEGTIVYRGMFDNRDVAVKRILPECFSFADREVQLLRESDEHPNVIRYFCTEKDRQFQYIAIELCAATLQEYVEQKDFAHLGLEPITLLQQTTSGLAHLHSLNIVHRDLKPHNILISMPNAHGKIKAMISDFGLCKKLAVGRHSFSRRSGVPGTEGWIAPEMLSEDCKENPTYTVDIFSAGCVFYYVISEGSHPFGKSLQRQANILLGACSLDCLHPEKHEDVIARELIEKMIAMDPQKRPSAKHVLKHPFFWSLEKQLQFFQDVSDRIEKESLDGPIVKQLERGGRAVVKMDWRENITVPLQTDLRKFRTYKGGSVRDLLRAMRNKKHHYRELPAEVRETLGSLPDDFVCYFTSRFPHLLAHTYRAMELCSHERLFQPYYFHEPPEPQPPVTPDAL
